The data set concerns the target T1, indolicidin (Bos taurus (bovine; synthetic peptide), UniProt P33046).
T1 chain: ILPWKWPWWPWRR
Description: SPR.

CATAATATTC (ssDNA) [ss[AT]] had a Kd of 2090 µM. The value for CGTGTGTGTC (ssDNA) [ss[GT]] was 115 µM. The result for CAGAGAGAGT (ssDNA) [ss[AG]] reads 2440 µM; that for CGCGGCGGCT (ssDNA) [ss[GC] (ss[CG] in Table 2)], 1530 µM.

For the origin of these results see publication PMC1179735.
